Data from the supplement of paper PMC10065799, “High-throughput profiling of sequence recognition by tyrosine kinases and SH2 domains using bacterial peptide display” (eLife, 2023).

Each sequence was assayed against Hck (UniProt P08631) (assay: phosphorylation enrichment, bacterial display (enrichment ratio); higher = better substrate or ligand; peptides without Tyr show the background).
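Further: 11-residue human phosphosite peptides and single-mutation variants displayed on the E. coli surface, counted by deep sequencing, each peptide's frequency after selection divided by its frequency in the unselected input library; frequency after pTyr selection over input frequency; kinase dosed for 20-30% of maximal phosphorylation in three min.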

Hck, sequence (P08631 whole entry, looked up): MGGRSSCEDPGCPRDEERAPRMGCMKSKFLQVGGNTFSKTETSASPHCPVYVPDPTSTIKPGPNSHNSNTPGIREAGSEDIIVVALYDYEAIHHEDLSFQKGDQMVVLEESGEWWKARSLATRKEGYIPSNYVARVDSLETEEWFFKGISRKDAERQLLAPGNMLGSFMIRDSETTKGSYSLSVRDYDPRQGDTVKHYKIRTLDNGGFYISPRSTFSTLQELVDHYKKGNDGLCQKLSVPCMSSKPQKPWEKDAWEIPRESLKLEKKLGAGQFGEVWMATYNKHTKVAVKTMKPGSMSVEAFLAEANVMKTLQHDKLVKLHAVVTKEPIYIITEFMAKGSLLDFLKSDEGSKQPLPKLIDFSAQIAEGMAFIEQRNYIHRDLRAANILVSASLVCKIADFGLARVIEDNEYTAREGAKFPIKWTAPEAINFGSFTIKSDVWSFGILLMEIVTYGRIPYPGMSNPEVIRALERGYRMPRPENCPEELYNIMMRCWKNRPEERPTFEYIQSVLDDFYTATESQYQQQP

Row | Sequence | phosphorylation enrichment
1 | SARFRYLMAEK [LDHB_Y173] | 0.435
2 | LLILEYAKFGS [RET_Y806_V804L_YF] | 0.901
3 | SGVNKYSTAFG [GJB3_Y16] | 0.409
4 | LERFIYNREEF [HLA-DPB1_Y59_F64Y_YF] | 1.29
5 | NSGFFYKTAEE [CCT6B_Y250] | 0.445
6 | HGEAFYSEVKP [PAK5_Y182_YF] | 4.38
7 | QDDTVYMGKVT [DCTN1_Y1244] | 1.24
8 | TQPSPYAVFRF [RPGRIP1_Y823_YF] | 8.6
9 | LGNIVYSSLCG [BCOR_Y90_P85L] | 6.67
10 | LHRHAYPEQRQ [DPPA2_Y127] | 0.704
11 | RLLVVYHWTQR [HBD_Y36_P37H] | 0.85
12 | RKEAQYMLENE [SLC16A6_Y224] | 0.803
13 | TGEKPYECVQC [ZNF24_Y335] | 0.521
14 | FIGVTYKNKED [PDGFRA_Y993_E996K_YF] | 0.427
15 | CTTIHYNYMCI [TP53_Y234_N239I] | 0.494
16 | TTGGFYSFGGG [KRT24_Y120_A115T_YF] | 1.57
17 | KAPVDYIRKLQ [MITF_Y360_S357P] | 0.346

Row | Sequence | phosphorylation enrichment
18 | IFCIQYNICAF [MYH4_Y820_R823C] | 0.45
19 | GGDQPYSGAGD [TYRO3_Y828_R824G] | 0.474
20 | NGEDLYAGSTD [XRCC1_Y515_P514L] | 0.886
21 | PGVNYYFQVSA | 1.03
22 | ALAHKHHGGGG [HBB_Y146_Y146H] | 0.419
23 | VEKGSYSALLA [ABCC2_Y845] | 0.537
24 | FDEFRYRSFIK [CFTR_Y517_V520F_YF] | 0.511
25 | RTEAQYRFIFM [PTPN11_Y511_Q506R_YF] | 0.398
26 | ETKTPYTVILI [SBDS_Y128_R126T] | 0.569
27 | RLVTRYIYNRE [HLA-DQB1_Y62_Y58L] | 0.424
28 | SLLTDCSPQLQ [OTC_Y345_Y345C] | 0.554
29 | SSREEYFIGGG [GYPC_Y126_K124E] | 0.474
30 | LKRCQYVTEKV [ALDOA_Y204] | 0.689
31 | PCPANYFAFKI [FAM3D_Y65] | 1.34
32 | IYHLSYIHNCE [PDE6B_Y227_L228I] | 1.81
33 | GVASDYKCVDP [VPS13B_Y1991_I1994V] | 0.537

Each sequence was assayed against Jak2 (UniProt O60674) in the same assay as above.
Jak2, sequence (O60674 whole entry, looked up): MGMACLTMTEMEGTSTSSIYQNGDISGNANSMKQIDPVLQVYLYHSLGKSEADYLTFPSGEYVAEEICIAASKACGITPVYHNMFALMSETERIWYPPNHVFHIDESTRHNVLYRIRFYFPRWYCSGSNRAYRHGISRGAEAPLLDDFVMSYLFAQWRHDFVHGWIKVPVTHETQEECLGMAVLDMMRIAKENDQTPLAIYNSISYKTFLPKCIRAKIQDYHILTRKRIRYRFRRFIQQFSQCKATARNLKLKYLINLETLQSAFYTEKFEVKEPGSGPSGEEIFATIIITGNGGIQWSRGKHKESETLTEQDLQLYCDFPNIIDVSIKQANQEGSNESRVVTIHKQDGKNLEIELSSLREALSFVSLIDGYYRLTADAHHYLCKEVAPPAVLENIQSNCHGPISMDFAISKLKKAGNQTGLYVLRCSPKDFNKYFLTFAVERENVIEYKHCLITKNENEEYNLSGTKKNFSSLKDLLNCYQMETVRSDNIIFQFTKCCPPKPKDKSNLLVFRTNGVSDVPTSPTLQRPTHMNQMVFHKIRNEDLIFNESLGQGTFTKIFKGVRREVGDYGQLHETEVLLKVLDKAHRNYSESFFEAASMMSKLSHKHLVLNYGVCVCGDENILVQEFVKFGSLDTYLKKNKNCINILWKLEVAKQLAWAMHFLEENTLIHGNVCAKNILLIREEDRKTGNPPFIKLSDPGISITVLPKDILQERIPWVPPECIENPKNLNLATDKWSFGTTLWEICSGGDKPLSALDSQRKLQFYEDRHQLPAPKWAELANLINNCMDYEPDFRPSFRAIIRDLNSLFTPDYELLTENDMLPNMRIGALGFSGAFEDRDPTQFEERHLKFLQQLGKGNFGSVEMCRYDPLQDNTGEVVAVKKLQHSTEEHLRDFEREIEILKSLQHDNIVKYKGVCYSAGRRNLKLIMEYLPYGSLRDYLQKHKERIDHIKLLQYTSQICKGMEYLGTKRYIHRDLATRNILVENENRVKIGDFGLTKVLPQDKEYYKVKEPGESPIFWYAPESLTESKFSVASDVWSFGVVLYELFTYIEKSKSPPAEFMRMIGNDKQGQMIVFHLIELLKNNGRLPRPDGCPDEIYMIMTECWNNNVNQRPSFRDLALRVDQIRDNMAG

Row | Sequence | phosphorylation enrichment
34 | SARFRYLMAEK [LDHB_Y173] | 0.692
35 | LLILEYAKFGS [RET_Y806_V804L_YF] | 1.15
36 | SGVNKYSTAFG [GJB3_Y16] | 0.604
37 | LERFIYNREEF [HLA-DPB1_Y59_F64Y_YF] | 1.39
38 | NSGFFYKTAEE [CCT6B_Y250] | 1.44
39 | HGEAFYSEVKP [PAK5_Y182_YF] | 0.609
40 | QDDTVYMGKVT [DCTN1_Y1244] | 1.31
41 | TQPSPYAVFRF [RPGRIP1_Y823_YF] | 0.824
42 | LGNIVYSSLCG [BCOR_Y90_P85L] | 2.02
43 | LHRHAYPEQRQ [DPPA2_Y127] | 0.53
44 | RLLVVYHWTQR [HBD_Y36_P37H] | 1.17
45 | RKEAQYMLENE [SLC16A6_Y224] | 1.22
46 | TGEKPYECVQC [ZNF24_Y335] | 0.664
47 | FIGVTYKNKED [PDGFRA_Y993_E996K_YF] | 0.797
48 | CTTIHYNYMCI [TP53_Y234_N239I] | 0.859
49 | TTGGFYSFGGG [KRT24_Y120_A115T_YF] | 0.604
50 | KAPVDYIRKLQ [MITF_Y360_S357P] | 0.576

Row | Sequence | phosphorylation enrichment
51 | IFCIQYNICAF [MYH4_Y820_R823C] | 1.56
52 | GGDQPYSGAGD [TYRO3_Y828_R824G] | 0.775
53 | NGEDLYAGSTD [XRCC1_Y515_P514L] | 1.02
54 | PGVNYYFQVSA | 2.79
55 | ALAHKHHGGGG [HBB_Y146_Y146H] | 0.558
56 | VEKGSYSALLA [ABCC2_Y845] | 0.69
57 | FDEFRYRSFIK [CFTR_Y517_V520F_YF] | 0.497
58 | RTEAQYRFIFM [PTPN11_Y511_Q506R_YF] | 1.14
59 | ETKTPYTVILI [SBDS_Y128_R126T] | 0.961
60 | RLVTRYIYNRE [HLA-DQB1_Y62_Y58L] | 0.493
61 | SLLTDCSPQLQ [OTC_Y345_Y345C] | 0.905
62 | SSREEYFIGGG [GYPC_Y126_K124E] | 0.894
63 | LKRCQYVTEKV [ALDOA_Y204] | 2.26
64 | PCPANYFAFKI [FAM3D_Y65] | 8.15
65 | IYHLSYIHNCE [PDE6B_Y227_L228I] | 1.18
66 | GVASDYKCVDP [VPS13B_Y1991_I1994V] | 0.964

These sequences were tested against MERTK (UniProt Q12866) in the same assay as above.
MERTK, sequence (Q12866 whole entry, looked up): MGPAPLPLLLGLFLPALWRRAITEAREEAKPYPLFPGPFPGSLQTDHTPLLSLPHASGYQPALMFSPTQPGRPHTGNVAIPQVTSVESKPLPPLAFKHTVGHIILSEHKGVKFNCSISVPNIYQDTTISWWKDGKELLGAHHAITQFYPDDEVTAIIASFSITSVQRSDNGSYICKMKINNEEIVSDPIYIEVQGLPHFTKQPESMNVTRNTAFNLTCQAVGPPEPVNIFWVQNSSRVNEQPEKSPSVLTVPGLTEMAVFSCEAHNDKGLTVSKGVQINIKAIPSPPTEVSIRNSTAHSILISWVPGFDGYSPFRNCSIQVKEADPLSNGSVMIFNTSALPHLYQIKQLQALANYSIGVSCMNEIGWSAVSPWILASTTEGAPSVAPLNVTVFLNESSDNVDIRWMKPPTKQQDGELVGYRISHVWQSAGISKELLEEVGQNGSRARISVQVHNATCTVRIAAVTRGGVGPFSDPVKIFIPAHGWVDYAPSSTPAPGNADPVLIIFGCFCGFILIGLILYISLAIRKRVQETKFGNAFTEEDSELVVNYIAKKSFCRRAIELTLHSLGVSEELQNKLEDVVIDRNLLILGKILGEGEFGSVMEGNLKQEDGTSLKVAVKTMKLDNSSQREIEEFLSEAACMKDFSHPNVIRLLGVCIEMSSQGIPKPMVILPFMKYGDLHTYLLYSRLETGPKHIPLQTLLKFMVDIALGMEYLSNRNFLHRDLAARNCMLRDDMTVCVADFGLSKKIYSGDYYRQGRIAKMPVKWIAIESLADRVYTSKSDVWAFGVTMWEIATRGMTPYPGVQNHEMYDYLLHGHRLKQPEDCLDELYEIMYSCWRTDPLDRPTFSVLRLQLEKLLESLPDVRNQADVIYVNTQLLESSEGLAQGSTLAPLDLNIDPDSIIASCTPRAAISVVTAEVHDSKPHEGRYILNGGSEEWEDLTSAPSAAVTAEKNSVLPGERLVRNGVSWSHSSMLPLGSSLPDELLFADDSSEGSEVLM

Row | Sequence | phosphorylation enrichment
67 | SARFRYLMAEK [LDHB_Y173] | 0.397
68 | LLILEYAKFGS [RET_Y806_V804L_YF] | 0.585
69 | SGVNKYSTAFG [GJB3_Y16] | 0.425
70 | LERFIYNREEF [HLA-DPB1_Y59_F64Y_YF] | 0.652
71 | NSGFFYKTAEE [CCT6B_Y250] | 0.435
72 | HGEAFYSEVKP [PAK5_Y182_YF] | 9.01
73 | QDDTVYMGKVT [DCTN1_Y1244] | 0.714
74 | TQPSPYAVFRF [RPGRIP1_Y823_YF] | 9.69
75 | LGNIVYSSLCG [BCOR_Y90_P85L] | 2.66
76 | LHRHAYPEQRQ [DPPA2_Y127] | 0.487
77 | RLLVVYHWTQR [HBD_Y36_P37H] | 0.666
78 | RKEAQYMLENE [SLC16A6_Y224] | 0.619
79 | TGEKPYECVQC [ZNF24_Y335] | 0.509
80 | FIGVTYKNKED [PDGFRA_Y993_E996K_YF] | 0.386
81 | CTTIHYNYMCI [TP53_Y234_N239I] | 1.41
82 | TTGGFYSFGGG [KRT24_Y120_A115T_YF] | 8.96
83 | KAPVDYIRKLQ [MITF_Y360_S357P] | 0.399

Row | Sequence | phosphorylation enrichment
84 | IFCIQYNICAF [MYH4_Y820_R823C] | 0.421
85 | GGDQPYSGAGD [TYRO3_Y828_R824G] | 0.408
86 | NGEDLYAGSTD [XRCC1_Y515_P514L] | 0.446
87 | PGVNYYFQVSA | 0.734
88 | ALAHKHHGGGG [HBB_Y146_Y146H] | 0.416
89 | VEKGSYSALLA [ABCC2_Y845] | 0.71
90 | FDEFRYRSFIK [CFTR_Y517_V520F_YF] | 0.422
91 | RTEAQYRFIFM [PTPN11_Y511_Q506R_YF] | 0.413
92 | ETKTPYTVILI [SBDS_Y128_R126T] | 0.534
93 | RLVTRYIYNRE [HLA-DQB1_Y62_Y58L] | 0.507
94 | SLLTDCSPQLQ [OTC_Y345_Y345C] | 0.441
95 | SSREEYFIGGG [GYPC_Y126_K124E] | 0.471
96 | LKRCQYVTEKV [ALDOA_Y204] | 0.672
97 | PCPANYFAFKI [FAM3D_Y65] | 12.1
98 | IYHLSYIHNCE [PDE6B_Y227_L228I] | 4.22
99 | GVASDYKCVDP [VPS13B_Y1991_I1994V] | 0.476

These sequences were tested on c-Abl (mouse) in the same assay as above.

Row | Sequence | phosphorylation enrichment
100 | SARFRYLMAEK [LDHB_Y173] | 0.566
101 | LLILEYAKFGS [RET_Y806_V804L_YF] | 0.635
102 | SGVNKYSTAFG [GJB3_Y16] | 0.461
103 | LERFIYNREEF [HLA-DPB1_Y59_F64Y_YF] | 0.857
104 | NSGFFYKTAEE [CCT6B_Y250] | 0.888
105 | HGEAFYSEVKP [PAK5_Y182_YF] | 1.02
106 | QDDTVYMGKVT [DCTN1_Y1244] | 1.37
107 | TQPSPYAVFRF [RPGRIP1_Y823_YF] | 24.8
108 | LGNIVYSSLCG [BCOR_Y90_P85L] | 2.48
109 | LHRHAYPEQRQ [DPPA2_Y127] | 0.789
110 | RLLVVYHWTQR [HBD_Y36_P37H] | 1.32
111 | RKEAQYMLENE [SLC16A6_Y224] | 0.997
112 | TGEKPYECVQC [ZNF24_Y335] | 0.519
113 | FIGVTYKNKED [PDGFRA_Y993_E996K_YF] | 0.567
114 | CTTIHYNYMCI [TP53_Y234_N239I] | 0.509
115 | TTGGFYSFGGG [KRT24_Y120_A115T_YF] | 0.585
116 | KAPVDYIRKLQ [MITF_Y360_S357P] | 0.475

Row | Sequence | phosphorylation enrichment
117 | IFCIQYNICAF [MYH4_Y820_R823C] | 1.14
118 | GGDQPYSGAGD [TYRO3_Y828_R824G] | 0.562
119 | NGEDLYAGSTD [XRCC1_Y515_P514L] | 0.743
120 | PGVNYYFQVSA | 1.48
121 | ALAHKHHGGGG [HBB_Y146_Y146H] | 0.569
122 | VEKGSYSALLA [ABCC2_Y845] | 0.516
123 | FDEFRYRSFIK [CFTR_Y517_V520F_YF] | 0.454
124 | RTEAQYRFIFM [PTPN11_Y511_Q506R_YF] | 0.765
125 | ETKTPYTVILI [SBDS_Y128_R126T] | 0.651
126 | RLVTRYIYNRE [HLA-DQB1_Y62_Y58L] | 0.447
127 | SLLTDCSPQLQ [OTC_Y345_Y345C] | 0.768
128 | SSREEYFIGGG [GYPC_Y126_K124E] | 0.71
129 | LKRCQYVTEKV [ALDOA_Y204] | 1.24
130 | PCPANYFAFKI [FAM3D_Y65] | 7.14
131 | IYHLSYIHNCE [PDE6B_Y227_L228I] | 4.3
132 | GVASDYKCVDP [VPS13B_Y1991_I1994V] | 0.791
